Test results as given in patent US20090202429A1.
Blank lines part the entries; values can stand above or below the substance they belong to.

Columns and labels:
[1] = target: human platelet glycoprotein Ib alpha (GPIb alpha), on human platelets (human) (UniProt P07359)
[2] = target: human platelet glycoprotein Ib alpha (GPIb alpha), on human platelets (human) (UniProt P07359); assay: cell-based or functional assay
[3] = target: human platelet integrin alphaIIb beta3, on human platelets (human) (UniProt P08514); assay: cell-based or functional assay
Chain of human platelet integrin alphaIIb beta3, on human platelets (human) (P08514 32-1039, chain 1 of 2): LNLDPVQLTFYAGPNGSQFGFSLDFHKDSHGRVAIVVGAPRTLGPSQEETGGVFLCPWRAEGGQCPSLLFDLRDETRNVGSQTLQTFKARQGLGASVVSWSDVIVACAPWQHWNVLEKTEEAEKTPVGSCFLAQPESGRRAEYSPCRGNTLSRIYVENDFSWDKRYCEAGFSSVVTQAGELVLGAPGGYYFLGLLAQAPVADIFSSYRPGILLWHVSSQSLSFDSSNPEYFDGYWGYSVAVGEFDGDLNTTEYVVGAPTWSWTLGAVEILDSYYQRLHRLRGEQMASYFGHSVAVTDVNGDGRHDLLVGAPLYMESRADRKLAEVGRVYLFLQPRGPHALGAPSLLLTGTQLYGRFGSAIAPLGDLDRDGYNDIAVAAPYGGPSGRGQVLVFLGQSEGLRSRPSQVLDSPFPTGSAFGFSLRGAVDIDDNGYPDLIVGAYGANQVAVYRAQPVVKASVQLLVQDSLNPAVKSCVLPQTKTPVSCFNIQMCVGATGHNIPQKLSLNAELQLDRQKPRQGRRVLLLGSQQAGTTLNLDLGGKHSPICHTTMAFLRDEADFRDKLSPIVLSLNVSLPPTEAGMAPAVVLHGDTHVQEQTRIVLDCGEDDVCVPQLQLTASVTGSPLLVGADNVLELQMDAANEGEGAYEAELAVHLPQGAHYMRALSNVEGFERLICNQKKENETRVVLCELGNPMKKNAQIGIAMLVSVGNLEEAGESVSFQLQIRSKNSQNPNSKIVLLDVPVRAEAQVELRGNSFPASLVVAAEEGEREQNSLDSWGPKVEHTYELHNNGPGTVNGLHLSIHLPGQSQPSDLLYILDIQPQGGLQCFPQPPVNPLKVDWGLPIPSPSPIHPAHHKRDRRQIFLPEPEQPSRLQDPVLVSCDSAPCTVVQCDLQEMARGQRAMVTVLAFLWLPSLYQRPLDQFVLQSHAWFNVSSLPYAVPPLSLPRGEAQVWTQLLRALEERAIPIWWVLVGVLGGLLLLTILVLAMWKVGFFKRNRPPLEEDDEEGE
Chain of human platelet integrin alphaIIb beta3, on human platelets (human) (P05106 27-788, chain 2 of 2, further chain): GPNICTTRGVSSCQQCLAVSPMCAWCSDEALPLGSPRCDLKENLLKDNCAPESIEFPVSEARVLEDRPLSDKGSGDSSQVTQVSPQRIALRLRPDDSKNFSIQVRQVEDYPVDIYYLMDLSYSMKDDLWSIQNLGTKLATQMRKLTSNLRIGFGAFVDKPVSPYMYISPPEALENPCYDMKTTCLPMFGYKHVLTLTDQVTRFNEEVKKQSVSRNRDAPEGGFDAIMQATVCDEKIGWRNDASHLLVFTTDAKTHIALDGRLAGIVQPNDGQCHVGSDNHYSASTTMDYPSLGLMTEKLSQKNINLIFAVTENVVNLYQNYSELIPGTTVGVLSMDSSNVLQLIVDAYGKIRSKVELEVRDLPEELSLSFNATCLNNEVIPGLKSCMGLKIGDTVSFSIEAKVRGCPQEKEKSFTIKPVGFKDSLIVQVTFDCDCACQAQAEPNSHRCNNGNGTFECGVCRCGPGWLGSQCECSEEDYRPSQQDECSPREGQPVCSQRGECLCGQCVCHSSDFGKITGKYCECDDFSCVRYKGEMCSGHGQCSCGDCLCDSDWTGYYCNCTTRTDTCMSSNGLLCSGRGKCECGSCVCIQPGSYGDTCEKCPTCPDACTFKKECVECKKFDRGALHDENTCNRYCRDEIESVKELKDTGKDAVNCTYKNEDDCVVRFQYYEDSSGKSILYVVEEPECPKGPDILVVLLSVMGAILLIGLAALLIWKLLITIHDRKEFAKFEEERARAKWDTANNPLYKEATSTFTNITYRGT

[4] = target: murine platelet glycoprotein Ib alpha (GPIb alpha), on mouse platelets (mouse) (UniProt O35930); assay: cell-based or functional assay
Chain of murine platelet glycoprotein Ib alpha (GPIb alpha), on mouse platelets (mouse) (O35930 17-734): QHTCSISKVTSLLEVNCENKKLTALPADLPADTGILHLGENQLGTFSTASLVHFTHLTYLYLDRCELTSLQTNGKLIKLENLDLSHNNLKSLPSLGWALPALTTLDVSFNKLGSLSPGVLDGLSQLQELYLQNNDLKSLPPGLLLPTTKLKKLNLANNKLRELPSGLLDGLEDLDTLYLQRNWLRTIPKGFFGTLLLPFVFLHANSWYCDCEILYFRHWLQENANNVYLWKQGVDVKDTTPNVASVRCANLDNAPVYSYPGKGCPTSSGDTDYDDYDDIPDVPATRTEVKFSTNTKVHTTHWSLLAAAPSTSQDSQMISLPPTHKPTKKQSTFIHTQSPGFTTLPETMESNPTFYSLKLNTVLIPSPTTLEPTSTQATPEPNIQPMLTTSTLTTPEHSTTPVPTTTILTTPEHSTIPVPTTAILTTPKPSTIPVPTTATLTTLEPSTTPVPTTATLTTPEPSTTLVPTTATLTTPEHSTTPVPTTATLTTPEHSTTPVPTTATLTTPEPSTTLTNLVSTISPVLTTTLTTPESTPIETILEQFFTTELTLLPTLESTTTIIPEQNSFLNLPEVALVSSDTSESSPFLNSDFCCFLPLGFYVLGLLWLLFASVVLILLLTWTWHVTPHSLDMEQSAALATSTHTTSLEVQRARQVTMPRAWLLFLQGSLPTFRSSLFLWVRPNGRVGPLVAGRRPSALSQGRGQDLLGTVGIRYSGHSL

[5] = target: human platelet glycoprotein Ib alpha (GPIb alpha), on human platelets (human) (UniProt P07359); assay: human whole blood perfused over surface-bound protein, parallel-plate flow chamber, 1600 s^-1

Chain of human platelet glycoprotein Ib alpha (GPIb alpha), on human platelets (human) (P07359 17-652): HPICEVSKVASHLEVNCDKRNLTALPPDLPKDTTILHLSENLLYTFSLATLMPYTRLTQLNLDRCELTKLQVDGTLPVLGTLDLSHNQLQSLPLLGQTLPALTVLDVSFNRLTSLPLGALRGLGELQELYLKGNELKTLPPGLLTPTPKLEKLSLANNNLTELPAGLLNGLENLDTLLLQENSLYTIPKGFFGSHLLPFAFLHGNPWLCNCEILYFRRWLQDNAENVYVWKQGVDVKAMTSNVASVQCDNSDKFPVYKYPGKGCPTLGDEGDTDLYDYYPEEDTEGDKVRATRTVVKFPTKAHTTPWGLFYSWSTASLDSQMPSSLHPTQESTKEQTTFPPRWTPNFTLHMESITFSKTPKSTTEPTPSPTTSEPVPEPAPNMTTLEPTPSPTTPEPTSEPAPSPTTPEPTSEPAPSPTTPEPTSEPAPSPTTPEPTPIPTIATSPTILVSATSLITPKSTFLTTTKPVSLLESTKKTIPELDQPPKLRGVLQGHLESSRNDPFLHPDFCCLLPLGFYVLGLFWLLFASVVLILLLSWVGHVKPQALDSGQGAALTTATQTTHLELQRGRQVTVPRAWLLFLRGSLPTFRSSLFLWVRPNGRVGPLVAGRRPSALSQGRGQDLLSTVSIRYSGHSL

human platelet accumulation / mm2 on surface-immobilized murine plasma VWF 1326R>H at 1600 s^-1, human blood treated with mAb 6D1 [1]: 0 / mm2
thrombus size in VWF 1326R>H mice after pre-treatment of human platelets with mAb 6D1 [2]: 265 µm^2
Substance: function-blocking monoclonal antibody 6D1 (anti-human GPIb alpha)

thrombus size in VWF 1326R>H mice after treatment of human platelets with mAb 7E3 [3]: 529 µm^2
Substance: function-blocking monoclonal antibody 7E3 (anti-human alphaIIb beta3)

share of human platelets in total thrombus area in WT mice [2]: 5.7%
ristocetin-induced platelet aggregation (RIPA), murine PRP, ristocetin ≧2.5 mg/ml [4]: 30%
platelet deposition, % of same-species control [5]: 10%
Substance: murine plasma VWF, wild type, Q8CIZ8 764-2813

translocation velocity of human platelets on immobilized plasma VWF [2]: 3.5 µm/sec
thrombi formed on collagen-coated cover slips by whole blood of knock-in animals, 1600 s^-1, reduction against WT [4]: 70%
thrombus formation by whole blood of mutant mice over surface-immobilized collagen in vitro, reduction against WT [4]: 80%
Substance: murine plasma VWF with the 1326R>H mutation (from homozygous VWF 1326R>H knock-in mice), Q8CIZ8 764-2813
average thrombus size at laser-injured arterioles of homozygous VWF 1326R>H mice infused with human platelets [2]: 8950 µm^2
share of human cells in thrombi at laser-injured arterioles of homozygous VWF 1326R>H mice [2]: 91.7%
